# Residue numbers refer to the chain shown, from its start. Numbers in names are those of the source.
# B1: 항-CXCR4 키메라 Mab c515H7 (antibody, human IgG1, kappa, V domains shown)
# VH: EVNLVESGGGLVQPGGSLRLSCATSGFTFTDNYMSWVRQPPGKALEWLGFIRNKANGYTTDYSASVRGRFTISRDNSQSILYLQMNALRAEDSATYYCARDVGSNYFDYWGQGTTLTVSS
# VL: DIVMSQSPSSLAVSAGEKVTMSCKSSQSLFNSRTRKNYLAWYQQKPGQSPKLLIYWASARDSGVPARFTGSGSETYFTLTISRVQAEDLAVYYCMQSFNLRTFGQGTKVEIKR
# B2: hz515H7 VH1 D76N VL2.1 (antibody, V domains shown)
# VH: EVQLVESGGGLVQPGRSLRLSCTASGFTFTDNYMSWVRQAPGKGLEWVGFIRNKANGYTTEYAASVKGRFTISRDNSKSIAYLQMNSLKTEDTAVYYCARDVGSNYFDYWGQGTLVTVSS
# VL: B1 VL with S5T, S9D, A15L, K18R, V19A, S49P, A66D, T69S
# B3: 항-CXCR4 Mab 515H7 (마우스 모노클론 항체) (antibody, V domains shown)
# VH: B1 VH
# VL: DIVMSQSPSSLAVSAGEKVTMSCKSSQSLFNSRTRKNYLAWYQQKPGQSPKLLIYWASARDSGVPARFTGSGSETYFTLTISRVQAEDLAVYYCMQSFNLRTFGGGTKLEIK
# B4: hz515H7 VH1 D76N VL2 (antibody, V domains shown)
# VH: B2 VH
# VL: B1 VL with S5T, A15L, K18R, V19A
# notes: also called hz515H7 VH1 D76N-VL2 Mab; 인간화 515H7 Mab
# B5: hz515H7 VH1 D76N VL2.2 (antibody, V domains shown)
# VH: B2 VH
# VL: B1 VL with S5T, S9D, A15L, K18R, V19A, S49P, A66D, L89V
# B6: hz515H7 VH1 D76N VL2.3 (antibody, V domains shown)
# VH: B2 VH
# VL: B1 VL with S5T, S9D, A15L, K18R, V19A, S49P, A66D, R83S, V84L
# B7: 515H7 인간화 VH 변형체 1 (VH1) + 마우스/키메라 VL (cVL) (antibody, human IgG1, kappa)
# heavy: not shown
# light: DIVMSQSPSSLAVSAGEKVTMSCKSSQSLFNSRTRKNYLAWYQQKPGQSPKLLIYWASARDSGVPARFTGSGSETYFTLTISRVQAEDLAVYYCMQSFNLRTFGQGTKVEIKRTVAAPSVFIFPPSDEQLKSGTASVVCLLNNFYPREAKVQWKVDNALQSGNSQESVTEQDSKDSTYSLSSTLTLSKADYEKHKVYACEVTHQGLSSPVTKSFNRGEC
# notes: also called VH1 cVL; VH 변형체 1 (VH1) 마우스 VL 조합
# B8: hz515H7 VH1 VL2 (VH 변형체 1 + VL 변형체 2) (antibody, human IgG1, kappa)
# heavy: not shown
# light: B7 light with S5T, A15L, K18R, V19A
# B9: 항-CXCR4 Mab 301aE5 (마우스 모노클론 항체) (antibody, V domains shown)
# VH: QVQLKESGPGLVAPSQSLSITCTVSGFSLTDYGVYWVRQPPGKGLEWLGMIWGDGTTDYNSALKSRLSISKDNSKSQVFLKMNTLQTDDTARYYCARGRQFGFDYWGQGTTLTVSS
# VL: B3 VL with S22R, Y55F, A59I, D61E, A66D, E74G, Y76D, R83S, M95K, F98Y
# Columns and labels:
# [1] = target: T1, 인간 CXCR4 (케모카인 (C-X-C 모티브) 수용체 4) (human, UniProt P61073 1-352); assay: cell-based or functional assay
# T1 sequence (P61073 whole entry): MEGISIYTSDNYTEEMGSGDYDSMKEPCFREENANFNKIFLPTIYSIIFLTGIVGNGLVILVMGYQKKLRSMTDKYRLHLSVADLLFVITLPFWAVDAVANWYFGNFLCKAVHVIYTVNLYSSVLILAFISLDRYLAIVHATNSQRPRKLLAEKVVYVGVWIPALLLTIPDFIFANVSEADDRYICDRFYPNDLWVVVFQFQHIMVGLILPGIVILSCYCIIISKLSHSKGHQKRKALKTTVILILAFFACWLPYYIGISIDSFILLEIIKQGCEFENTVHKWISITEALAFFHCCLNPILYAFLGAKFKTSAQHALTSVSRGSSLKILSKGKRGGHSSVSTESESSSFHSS
# [2] = target: CXCR4/Rluc + CXCR4/YFP (HEK293 세포의 CXCR4 동종이량체 BRET 파트너) (human; Renilla reniformis); assay: cell-based or functional assay
# Sequence of CXCR4/Rluc + CXCR4/YFP (HEK293 세포의 CXCR4 동종이량체 BRET 파트너) (human; Renilla reniformis) (chain, as listed by the source, chain 1 of 2): as the sequence (P61073 whole entry) above
# Sequence of CXCR4/Rluc + CXCR4/YFP (HEK293 세포의 CXCR4 동종이량체 BRET 파트너) (human; Renilla reniformis) (chain, as listed by the source, chain 2 of 2): as the sequence (P61073 whole entry) above
# [3] = target: T1, 인간 CXCR4 (케모카인 (C-X-C 모티브) 수용체 4); assay: FACS on NIH3T3-CXCR4 cells (legend of Fig. 21)
# [4] = target: T1, 인간 CXCR4 (케모카인 (C-X-C 모티브) 수용체 4); assay: competition flow cytometry on NIH3T3-CXCR4 cells; competitor biotinylated mouse 515H7
# [5] = target: T1, 인간 CXCR4 (케모카인 (C-X-C 모티브) 수용체 4); assay: competition flow cytometry on NIH3T3-CXCR4 cells; competitor biotinylated mouse 515H7 (legend of Fig. 19)
Binder,SDF-1-유도성 BRET 증가의 저해 [2] [%],SDF-1-유도성 BRET 증가의 저해 백분율 [2] [%],binding result [3],also measured
B1,96,–,–,"IC50, 89.6 복제 저해, 마라비록 2 μg/ml 첨가 시 [1]: 0.2 µg/mL; IC50, 인간 PBMC에서 이중 친화성 X4R5 바이러스 89.6 복제 저해 (다수 회차 검정법) [1]: 2 µg/mL"
B2,–,65,binds,–
B3,69,–,–,–
B4,–,~88,binds,–
B5,–,33,binds,–
B6,–,21,binds,–
B7,–,–,–,binding result [4]: binds
B8,–,–,–,binding result [5]: binds
B9,69,–,–,–

# Reference: patent publication KR20140009174A (dated 2014)
